Experimental data as given in patent US20200283532A1 (CANCER RESEARCH TECHNOLOGY, published 2020).

Assays:
Experiment in all cases: flow cytometry, A375Ppuro cells
[1] = target: Peptide (23) DTPA-GNK(Biotin)…-OH
[2] = target: Peptide (16) AcHN-NK(Biotin)…-OH
[3] = target: Peptide (22) DTPA-NK(Biotin)…-OH
[4] = target: Peptide (18) AcHN-NK(Biotin)…-NH2
[5] = target: Peptide (25) DTPA-nK(Biotin)…-OH
[6] = target: Peptide (24) DTPA-NK(Biotin)…-NH2
[7] = target: Peptide (26) DTPA-nK(Biotin)…t-OH

Measured: binding result

B1: integrin αvβ5 (receptor)
chain 1: FNLDVDSPAEYSGPEGSYFGFAVDFFVPSASSRMFLLVGAPKANTTQPGIVEGGQVLKCDWSSTRRCQPIEFDATGNRDYAKDDPLEFKSHQWFGASVRSKQDKILACAPLYHWRTEMKQEREPVGTCFLQDGTKTVEYAPCRSQDIDADGQGFCQGGFSIDFTKADRVLLGGPGSFYWQGQLISDQVAEIVSKYDPNVYSIKYNNQLATRTAQAIFDDSYLGYSVAVGDFNGDGIDDFVSGVPRAARTLGMVYIYDGKNMSSLYNFTGEQMAAYFGFSVAATDINGDDYADVFIGAPLFMDRGSDGKLQEVGQVSVSLQRASGDFQTTKLNGFEVFARFGSAIAPLGDLDQDGFNDIAIAAPYGGEDKKGIVYIFNGRSTGLNAVPSQILEGQWAARSMPPSFGYSMKGATDIDKNGYPDLIVGAFGVDRAILYRARPVITVNAGLEVYPSILNQDNKTCSLPGTALKVSCFNVRFCLKADGKGVLPRKLNFQVELLLDKLKQKGAIRRALFLYSRSPSHSKNMTISRGGLMQCEELIAYLRDESEFRDKLTPITIFMEYRLDYRTAADTTGLQPILNQFTPANISRQAHILLDCGEDNVCKPKLEVSVDSDQKKIYIGDDNPLTLIVKAQNQGEGAYEAELIVSIPLQADFIGVVRNNEALARLSCAFKTENQTRQVVCDLGNPMKAGTQLLAGLRFSVHQQSEMDTSVKFDLQIQSSNLFDKVSPVVSHKVDLAVLAAVEIRGVSSPDHVFLPIPNWEHKENPETEEDVGPVVQHIYELRNNGPSSFSKAMLHLQWPYKYNNNTLLYILHYDIDGPMNCTSDMEINPLRIKISSLQTTEKNDTVAGQGERDHLITKRDLALSEGDIHTLGCGVAQCLKIVCQVGRLDRGKSAILYVKSLLWTETFMNKENQNHSYSLKSSASFNVIEFPYKNLPIEDITNSTLVTTNVTWGIQPAPMPVPVWVIILAVLAGLLLLAVLVFVMYRMGFFKRVRPPQEEQEREQLQPHENGEGNSET
chain 2: GLNICTSGSATSCEECLLIHPKCAWCSKEDFGSPRSITSRCDLRANLVKNGCGGEIESPASSFHVLRSLPLSSKGSGSAGWDVIQMTPQEIAVNLRPGDKTTFQLQVRQVEDYPVDLYYLMDLSLSMKDDLDNIRSLGTKLAEEMRKLTSNFRLGFGSFVDKDISPFSYTAPRYQTNPCIGYKLFPNCVPSFGFRHLLPLTDRVDSFNEEVRKQRVSRNRDAPEGGFDAVLQAAVCKEKIGWRKDALHLLVFTTDDVPHIALDGKLGGLVQPHDGQCHLNEANEYTASNQMDYPSLALLGEKLAENNINLIFAVTKNHYMLYKNFTALIPGTTVEILDGDSKNIIQLIINAYNSIRSKVELSVWDQPEDLNLFFTATCQDGVSYPGQRKCEGLKIGDTASFEVSLEARSCPSRHTEHVFALRPVGFRDSLEVGVTYNCTCGCSVGLEPNSARCNGSGTYVCGLCECSPGYLGTRCECQDGENQSVYQNLCREAEGKPLCSGRGDCSCNQCSCFESEFGKIYGPFCECDNFSCARNKGVLCSGHGECHCGECKCHAGYIGDNCNCSTDISTCRGRDGQICSERGHCLCGQCQCTEPGAFGEMCEKCPTCPDACSTKRDCVECLLLHSGKPDNQTCHSLCRDEVITWVDTIVKDDQEAVLCFYKTAKDCVMMFTYVELPSGKSNLTVLREPECGNTPNAMTILLAVVGSILLVGLALLAIWKLLVTIHDRREFAKFQSERSRARYEMASNPLYRKPISTHTVDFTFNKFNKSYNGTVD
notes: whole, on cells
no binding (tested: 1000 nM): all assays above

B2: integrin αvβ8 (receptor)
chain 1: B1 chain 1
chain 2: EDNRCASSNAASCARCLALGPECGWCVQEDFISGGSRSERCDIVSNLISKGCSVDSIEYPSVHVIIPTENEINTQVTPGEVSIQLRPGAEANFMLKVHPLKKYPVDLYYLVDVSASMHNNIEKLNSVGNDLSRKMAFFSRDFRLGFGSYVDKTVSPYISIHPERIHNQCSDYNLDCMPPHGYIHVLSLTENITEFEKAVHRQKISGNIDTPEGGFDAMLQAAVCESHIGWRKEAKRLLLVMTDQTSHLALDSKLAGIVVPNDGNCHLKNNVYVKSTTMEHPSLGQLSEKLIDNNINVIFAVQGKQFHWYKDLLPLLPGTIAGEIESKAANLNNLVVEAYQKLISEVKVQVENQVQGIYFNITAICPDGSRKPGMEGCRNVTSNDEVLFNVTVTMKKCDVTGGKNYAIIKPIGFNETAKIHIHRNCSCQCEDNRGPKGKCVDETFLDSKCFQCDENKCHFDEDQFSSESCKSHKDQPVCSGRGVCVCGKCSCHKIKLGKVYGKYCEKDDFSCPYHHGNLCAGHGECEAGRCQCFSGWEGDRCQCPSAAAQHCVNSKGQVCSGRGTCVCGRCECTDPRSIGRFCEHCPTCYTACKENWNCMQCLHPHNLSQAILDQCKTSCALMEQQHYVDQTSECFSSPSYLRIFFIIFIVTFLIGLLKVLIIRQVILQWNSNKIKSSSDYRVSASKKDKLILQSVCTRAVTYRREKPEEIKMDISKLNAHETFRCNF
notes: whole, on cells
no binding (tested: 1000 nM): all assays above
